Data from IntAct's records for PubMed 18239685.

Target: taxb1_human TAX1BP1 (UniProt Q86VP1)

effect of a mutation on the interaction: decreasing interaction
Substance: Polyubiquitin-C (Homo sapiens) (from UniProt P0CG48) I44A
